# Data taken from the supplement of paper PMC9112550, “Optimization of the antimicrobial peptide Bac7 by deep mutational scanning” (BMC Biology, 2022).
# Test system: Escherichia coli TOP10
# Test: shrunken log2 fold change of peptide-encoding DNA abundance (4.5 h post-induction vs induction); higher = less antimicrobial activity (less host growth inhibition)
# Details: time post-induction: 4.5 h; library: site-saturation at positions 5, 18, 19, 20
# 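Further: peptides expressed intracellularly from a pBAD plasmid library in pooled LB shake-flask culture, induced with 0.3% L-arabinose, DNA abundance read by NGS, three biological replicates, DESeq2 with apeglm shrinkage.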
row,Sequence,shrunken log2 fold change
1,RRIRTRPPRLPRPRPRPLCLPRP,-0.433
2,RRIRKRPPRLPRPRPRPDGAPRP,0.632
3,RRIRMRPPRLPRPRPRPHGWPRP,0.839
4,RRIRRRPPRLPRPRPRPCQRPRP,0.0494
5,RRIRFRPPRLPRPRPRPQRFPRP,0.0542
6,RRIRLRPPRLPRPRPRPWWIPRP,-0.107
7,RRIRNRPPRLPRPRPRPVGDPRP,0.0156
8,RRIRMRPPRLPRPRPRPNHRPRP,-0.113
9,RRIRYRPPRLPRPRPRPPTQPRP,-0.056
10,RRIRKRPPRLPRPRPRPWWLPRP,0.252
11,RRIRPRPPRLPRPRPRPLYQPRP,-0.0164
12,RRIRYRPPRLPRPRPRPSGPPRP,-0.395
13,RRIRIRPPRLPRPRPRPIKYPRP,-2.06
14,RRIRKRPPRLPRPRPRPITLPRP,-0.0554
15,RRIRARPPRLPRPRPRPWYVPRP,-0.0927
16,RRIRGRPPRLPRPRPRPEVYPRP,0.346
17,RRIRLRPPRLPRPRPRPMIGPRP,0.0237
18,RRIRMRPPRLPRPRPRPVARPRP,0.407
19,RRIRMRPPRLPRPRPRPPMPPRP,0.703
20,RRIRCRPPRLPRPRPRPEPPPRP,2.06
21,RRIRYRPPRLPRPRPRPFNYPRP,0.0209
22,RRIRTRPPRLPRPRPRPYTGPRP,-0.0567

row,Sequence,shrunken log2 fold change
1,RRIRVRPPRLPRPRPRPMGFPRP,0.034
2,RRIRPRPPRLPRPRPRPNICPRP,-0.799
3,RRIRNRPPRLPRPRPRPWGCPRP,-0.00572
4,RRIRYRPPRLPRPRPRPNVWPRP,-0.00356
5,RRIRRRPPRLPRPRPRPYWMPRP,-0.205
6,RRIRWRPPRLPRPRPRPVHFPRP,-0.0407
7,RRIRWRPPRLPRPRPRPFNFPRP,-0.272
8,RRIRRRPPRLPRPRPRPLFYPRP,-0.248
9,RRIRRRPPRLPRPRPRPGFDPRP,0.289
10,RRIRERPPRLPRPRPRPQVDPRP,-0.211
11,RRIRDRPPRLPRPRPRPVYEPRP,-0.105
12,RRIRGRPPRLPRPRPRPYTCPRP,-0.0226
13,RRIRWRPPRLPRPRPRPSDRPRP,-0.0684
14,RRIRSRPPRLPRPRPRPEKCPRP,-0.0875
15,RRIRERPPRLPRPRPRPLHHPRP,-0.458
16,RRIRIRPPRLPRPRPRPACTPRP,0.242
17,RRIRWRPPRLPRPRPRPWLWPRP,0.242
18,RRIRGRPPRLPRPRPRPPGMPRP,0.989
19,RRIRDRPPRLPRPRPRPNHIPRP,-1
20,RRIRIRPPRLPRPRPRPFLHPRP,-0.787
21,RRIRQRPPRLPRPRPRPTISPRP,-0.379
22,RRIRERPPRLPRPRPRPMPYPRP,-0.0164

row,Sequence,shrunken log2 fold change
1,RRIRERPPRLPRPRPRPHHKPRP,-0.449
2,RRIRDRPPRLPRPRPRPQEPPRP,-0.0802
3,RRIRYRPPRLPRPRPRPTSDPRP,-0.459
4,RRIRTRPPRLPRPRPRPSKAPRP,-0.0453
5,RRIRTRPPRLPRPRPRPYEDPRP,-0.0155
6,RRIRVRPPRLPRPRPRPAICPRP,-0.0408
7,RRIRIRPPRLPRPRPRPSIKPRP,-0.64
8,RRIRYRPPRLPRPRPRPTKKPRP,0.113
9,RRIRTRPPRLPRPRPRPQGDPRP,-0.0192
10,RRIRGRPPRLPRPRPRPHIYPRP,0.0231
11,RRIRVRPPRLPRPRPRPFDSPRP,-0.204
12,RRIRERPPRLPRPRPRPFAPPRP,0.117
13,RRIRPRPPRLPRPRPRPLATPRP,0.605
14,RRIRGRPPRLPRPRPRPLTDPRP,0.284
15,RRIRKRPPRLPRPRPRPLQCPRP,0.101
16,RRIRDRPPRLPRPRPRPIHQPRP,-0.241
17,RRIRRRPPRLPRPRPRPCNMPRP,-0.152
18,RRIRPRPPRLPRPRPRPPNSPRP,-0.0717
19,RRIRVRPPRLPRPRPRPEDSPRP,0.0654
20,RRIRFRPPRLPRPRPRPKYHPRP,-0.428
21,RRIRPRPPRLPRPRPRPVNSPRP,-0.196
22,RRIRPRPPRLPRPRPRPNWWPRP,0.717

row,Sequence,shrunken log2 fold change
1,RRIRDRPPRLPRPRPRPDCQPRP,-0.00973
2,RRIRPRPPRLPRPRPRPQALPRP,0.339
3,RRIRFRPPRLPRPRPRPLEVPRP,0.0238
4,RRIRVRPPRLPRPRPRPCKIPRP,-0.376
5,RRIRERPPRLPRPRPRPPSEPRP,0.156
6,RRIRWRPPRLPRPRPRPDRNPRP,0.0394
7,RRIRFRPPRLPRPRPRPMFEPRP,-0.0233
8,RRIRDRPPRLPRPRPRPRAHPRP,0.38
9,RRIRCRPPRLPRPRPRPWFYPRP,-0.758
10,RRIRHRPPRLPRPRPRPRPHPRP,0.365
11,RRIRYRPPRLPRPRPRPYHKPRP,-0.249
12,RRIRDRPPRLPRPRPRPWKRPRP,-0.0239
13,RRIRPRPPRLPRPRPRPNYTPRP,-0.679
14,RRIRERPPRLPRPRPRPQMRPRP,0.0123
15,RRIRHRPPRLPRPRPRPATTPRP,-0.101
16,RRIRVRPPRLPRPRPRPVRSPRP,0.522
17,RRIRYRPPRLPRPRPRPRVMPRP,-0.155
18,RRIRERPPRLPRPRPRPIKWPRP,-0.0383
19,RRIRQRPPRLPRPRPRPSGFPRP,-0.102
20,RRIRQRPPRLPRPRPRPRYWPRP,-0.0336
21,RRIRWRPPRLPRPRPRPAPIPRP,0.319
22,RRIRTRPPRLPRPRPRPHYMPRP,-0.476

row,Sequence,shrunken log2 fold change
1,RRIRIRPPRLPRPRPRPRIQPRP,-0.275
2,RRIRLRPPRLPRPRPRPQYMPRP,-0.0107
3,RRIRWRPPRLPRPRPRPFSPPRP,0.0392
4,RRIRCRPPRLPRPRPRPVREPRP,0.386
5,RRIRPRPPRLPRPRPRPCMWPRP,0.0459
6,RRIRTRPPRLPRPRPRPNYKPRP,-0.823
7,RRIRFRPPRLPRPRPRPEMKPRP,0.0843
8,RRIRLRPPRLPRPRPRPGAIPRP,0.0769
9,RRIRNRPPRLPRPRPRPGMVPRP,-0.23
10,RRIRLRPPRLPRPRPRPYLMPRP,-0.69
11,RRIRYRPPRLPRPRPRPSMSPRP,-1.19
12,RRIRHRPPRLPRPRPRPRRNPRP,-0.104
13,RRIRTRPPRLPRPRPRPRLEPRP,0.32
14,RRIRCRPPRLPRPRPRPVAWPRP,0.163
15,RRIRLRPPRLPRPRPRPVIMPRP,-0.0794
16,RRIRTRPPRLPRPRPRPKPYPRP,-0.607
17,RRIRNRPPRLPRPRPRPTYQPRP,-0.0398
18,RRIRCRPPRLPRPRPRPRNTPRP,0.855
19,RRIRTRPPRLPRPRPRPHNVPRP,-0.141
20,RRIRMRPPRLPRPRPRPCVCPRP,-0.00811
21,RRIRYRPPRLPRPRPRPRYHPRP,-0.922
